Non-standard residues stand in square brackets, D forms with d.
Columns and labels:
Assay in all cases: flow cytometry, cytometric bead array with BSA-coupled peptides
[1] = target: T1, STII peptide H2N-CGNWSHPQFEK-amide, maleimide-coupled to BSA carrier protein (also: maleimide-coupled to BSA carrier protein)
T1 construct: on a cytometric bead array as BSA conjugate
T1 peptide: H-CGNWSHPQFEK-NH2

[2] = target: T2, STII peptide Ac-C(dPEG4)NWSHPQFEK-amide, maleimide-coupled to BSA carrier protein (also: maleimide-coupled to BSA carrier protein)
T2 construct: on a cytometric bead array as BSA conjugate
T2 peptide: Ac-C[dPEG4]NWSHPQFEK-NH2

[3] = target: T3, STII peptide H2N-CGNWSHPQFEKGC-OH, maleimide-coupled to BSA carrier protein (cysteine pairing not given here; also: maleimide-coupled to BSA carrier protein)
T3 construct: on a cytometric bead array as BSA conjugate
T3 peptide: H-CGNWSHPQFEKGC-OH

Measured: binding result

B1: anti-STII monoclonal antibody 4E2 (antibody, V domains shown)
VH: QVQLQQSGAELARPGASVKLSCTASGYTFTSYGITWVRQRTGQGLEWIGEIFPGSGDTSYGEKLKGQATLTTDKSSSTAYMQLSSLTSEDSAVYFCARRYRYIYHAMDYWGQGTSVTVSS
VL: DILMTQTPLSLPVSLGDQASISCRSSQSIVHSNGNTYLEWYLQKPGQSPKLLIYKVSNRFSGVPDRFSGSGSGTDFTLKISRVEAEDLGVYYCFQGSHVPLTFGAGTKLELK
notes: also called 4E2 mAb
binds: [1] | [2] | [3]

B2: anti-STII monoclonal antibody 5G2 (antibody, V domains shown)
VH: QVQLQQSGAELARPGASVKLSCTASGYTFTSYGITWVRQRTGQGLEWIGEIFPGSGDTSYGEKFKGQATLTTDKSSSTAYMQLSSLTSEDSAVYFCARRYRYIYHAMDYWGQGTSVTVSS
VL: DILMTQTPLSLPVSLGDQASISCRSSQSIVHSNGNTYLEWYLQKPGQSPKLLIYKVSNRFSGVPDRFSGSGSGTDFTLKIRRVEAEDLGVYYCFQGSHVPLTFGAGTKLELK
notes: also called 5G2 mAb; anti-STII 5G2 mAb
binds: [1] | [2] | [3]

B3: anti-STII monoclonal antibody 3E8 (antibody, V domains shown)
VH: EVQLVETGGGFVKPGGSLKLSCAASGFTFSSYGMSWVRQTPEKRLEWVAAITSDGGGTHYPDTVKGRFTISRDFAKNTLYLQMSSLRSEDTAWYFCARHEPRLIAWFAHWGQGTLVTVSA
VL: DVLMTQTPLSLPVSLGDQASISCRSSQSIVHSNGYTYLEWYLQKPGQSPKLLIYEVSNRFSGVPDRFSGSGSGTDFTLKIIRVEAEDLGVYYCFQGSHVPWTFGGGTKLEIK
notes: also called 3E8 mAb; STII-specific mAb 3E8
binds: [1] | [2] | [3]
